Test results taken from article PMC11359734, “Two enzymes contribute to citrate production in the mitochondrion of Toxoplasma gondii” (The Journal of Biological Chemistry, 2024).

Key:
[1] = substrate: CC(=O)SCCNC(=O)CCNC(=O)[C@H](O)C(C)(C)COP(=O)(O)OP(=O)(O)OC[C@H]1O[C@@H](n2cnc3c(N)ncnc32)[C@H](O)[C@@H]1OP(=O)(O)O; test: citrate synthase kit, OD412, 96-well plate; type: biochemical, Toxoplasma gondii; details: co-substrate oxaloacetate
[2] = substrate: O=C(O)CC(=O)C(=O)O; test: citrate synthase kit, OD412, 96-well plate; type: biochemical, Toxoplasma gondii; details: co-substrate acetyl-CoA

Protein | Km [1] | Km [2]
TgPrpC (Toxoplasma gondii) (protein, residues 113-619 (N-terminal part removed), His-tagged fusion from pESUMO vector, expressed in E. coli Transetta (DE3), Ni2+ column) QSGVHVPTAPSDCAFSPDWRSVCCSQTFSAVSTTTLERQITKENSKNGIECLNAESENCFGFALLLRHRCGLHSGSVDPPLCSLTRRKPTWQRQTTAFLSSTMARQPLETSYEQRKDSEFSPGLEGVVAGESAISSVGPASLAGLTYRGYRIDDLTEKATFEEVVFLLLHDRLPTKQELDAQHQELVLARRLPPSLKACLEYFPKNSHPMDVVRTGCSMMGMLEQENAPPDQQAKIGLRLIGMYSSMLLYWYHYAHHGIRICEETDPADSVAAHFLKLLNQHSSGPHPLEVKAVDISLILYAEHDFNASTFAARVTAATRSDIYSAICSAIGTLKGPLHGGANEAAIMFLRKLRDMQQADQELESIWRHHERVMGFGHRLYKEGDPRSHIMMKVALDLAQNAPKKDPNLVQIAQHIEERMEKEKHLPANVDFPCALAYHQCGIPTDLYTPLFVLARTAGWTAHIMEQRANNRLIRPVSHYVGPPVRPFPSFEEREKLANPSEQSRSR | 1169 nM | 1661 nM
TgCS1 (Toxoplasma gondii) (protein, residues 95-559 (N-terminal part removed), His-tagged fusion from pESUMO vector, expressed in E. coli Transetta (DE3), Ni2+ column) SARSVCGGLSNAEARAAVEAALDALAEKVQEAAEPKRELLKTLRKEHGTVVISEATLSTVCGGMRGLTAILTETSTLHAEKGILYRGLTINECLAKLPRMHKEEYPAVEGLIWFLMTGSIPTVNEVELLSNALYALSLSSASSSPSAPFIPPHVGKVLDAVPPSTHPMTQLVMAAAALQPTSELAQAYRHKTVSRHDLWKPALADALSLIAKNAVMAARIFRRSFRDGQEIDPAANFGHMMGFNSKEHQELFRLYLFLHADHEGGNVSAHAAHVVGSALSDPFLAFSAGMAGLAGPLHGLANQECLNWLRDVHCKLNGAAPTRENVKKIAEDTLASGRVIPGYGHAVLRVTDPRFTAQREFALKYLKDDELFQLLNVAYNTIPDVLLATGKVKNPYPNVDCHSGVLLQHFGITEADFYTVLFGVSRAIGIACQYVWDRILGLPIERPKSTTLDLLKAACVERKGN | 469.3 nM | 1423 nM
